For assay [1], the target named is T1, Murine Gαq (amino acids 7-359), biotinylated (mouse, UniProt P21279 7-359, biotinylated with biotinamidohexanoic acid N-hydroxysuccinimide).
T1 sequence (looked up): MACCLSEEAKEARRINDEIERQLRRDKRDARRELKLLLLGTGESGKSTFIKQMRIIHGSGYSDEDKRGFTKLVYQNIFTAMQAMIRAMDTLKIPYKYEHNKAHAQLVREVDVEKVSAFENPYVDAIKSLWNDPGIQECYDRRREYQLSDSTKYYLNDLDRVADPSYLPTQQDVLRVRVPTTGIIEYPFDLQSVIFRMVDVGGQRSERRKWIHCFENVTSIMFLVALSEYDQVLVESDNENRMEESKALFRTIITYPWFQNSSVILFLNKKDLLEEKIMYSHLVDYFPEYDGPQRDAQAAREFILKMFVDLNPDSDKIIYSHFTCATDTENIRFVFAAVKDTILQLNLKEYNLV
As to the kind of experiment: bead-based flow cytometry binding assay.

In assay [2] the target is Gαi/q-R183C chimera (Gαq R183C with the N-terminal helix of Gαi), biotinylated (not stated | mouse). The assay is described as follows: bead-based flow cytometry binding assay. (In flow cytometry, cells or beads pass a laser one at a time.)
Assay [3] has as its target T1, Murine Gαq (amino acids 7-359), …. As to the kind of experiment: bead-based flow cytometry competition assay.

Positions count from the first letter of the chain named. Numbers in names are those of the source.

B1: Full-length RGS2, fluorescently labeled with Alexa Fluor-488 (natural protein, human, UniProt P41220 1-211, looked up)
chain: MQSAMFLAVQHDCRPMDKSAGSGHKSEEKREKMKRTLLKDWKTRLSYFLQNSSTPGKPKTGKKSKQQAFIKPSPEEAQLWSEAFDELLASKYGLAAFRAFLKSEFCEENIEFWLACEDFKKTKSPQKLSSKARKIYTDFIEKEAPKEINIDFQTKTLIAQNIQEATSGCFTTAQKRVYSLMENNSYPRFLESEFYQDLCKKPQITTEPHAT
modifications: labeled with Alexa Fluor-488 carboxylic acid, 2,3,5,6-tetrafluorophenyl ester, 5-isomer
One may read the Kd as a measure of binding affinity in units of concentration. B1: the results for the Kd in assay [1] and in assay [2] were 3.3 nM and 22 nM, respectively.

B2: RGS2 RH domain (residues 72-203), wild type (domain or fragment, human)
chain: GEFGSPSPEEAQLWSEAFDELLASKYGLAAFRAFLKSEFCEENIEFWLACEDFKKTKSPQKLSSKARKIYTDFIEKEAPKEINIDFQTKTLIAQNIQEATSGCFTTAQKRVYSLMENNSYPRFLESEFYQDLCKKPQ
The term IC50 denotes the midpoint of a concentration-inhibition curve. Read a high IC50 as a need for much substance. Take B2: the IC50 in assay [3] was 270 nM.

B3: RGS2 RH domain (residues 72-203) N183F (domain or fragment, human)
chain: B2 chain with N117F
The molecule B3 showed an IC50 in assay [3] of 170 nM.

B4: RGS2 RH domain (residues 72-203) K175A (domain or fragment, human)
chain: B2 chain with K109A
For B4, the IC50 in assay [3] came to 560 nM.

B5: RGS2 RH domain (residues 72-203) E182A (domain or fragment, human)
chain: B2 chain with E116A
Regarding B5, the IC50 in assay [3] amounted to 300 nM.

B6: RGS2 RH domain (residues 72-203) S179D (domain or fragment, human)
chain: B2 chain with S113D
In turn, B6 showed an IC50 in assay [3] of 16000 nM.

B7: RGS2 RH domain (residues 72-203) S179N (domain or fragment, human)
chain: B2 chain with S113N
The molecule B7 registered an IC50 in assay [3] of 690 nM.

B8: RGS2 RH domain (residues 72-203) S179M (domain or fragment, human)
chain: B2 chain with S113M
As to B8, the IC50 in assay [3] is 130 nM.

B9: RGS2 RH domain (residues 72-203) N183A (domain or fragment, human)
chain: B2 chain with N117A
In the case of B9, the IC50 in assay [3] is 1500 nM. Compared with the last molecule, the IC50 is about 12-fold higher.

B10: RGS2 RH domain (residues 72-203) S179K (domain or fragment, human)
chain: B2 chain with S113K
Consider B10, for which, in assay [3], the IC50 is 3400 nM. This IC50 lies about 2.3-fold higher than the previous one.

B11: RGS2 RH domain (residues 72-203) N183K (domain or fragment, human)
chain: B2 chain with N117K
Turning to B11, the IC50 in assay [3] was found to be 7100 nM.

These data come from paper PMC3638996 (Structure (London, England : 1993), 2013).
